From PMC6939381 come the findings set out here.

The target in this experiment is CohE-CBM(C63S)-ybbR (Ruminococcus flavefaciens). Description: ITC. On the technique in general: Isothermal titration calorimetry measures the heat released or taken up as one component is titrated into another.

For “ybbR-CBM(C63S)-ScaB-XDoc (domain or fragment)”, the Kd (commonly a measure of binding affinity in units of concentration) was 0.149 µM.
